For test [1], the target named is MetIN, the E. coli D/L-methionine ABC importer (His-tagged) (Escherichia coli) (UniProt P30750). The experiment in a line: SPR. On the technique in general: SPR reads the build-up and loss of mass on a sensor chip optically.
For test [2], the target named is T1, BtuCD, the E. coli vitamin B12 ABC transporter (His-tagged) (Escherichia coli, UniProt P06609;P06611).
T1 sequence 1: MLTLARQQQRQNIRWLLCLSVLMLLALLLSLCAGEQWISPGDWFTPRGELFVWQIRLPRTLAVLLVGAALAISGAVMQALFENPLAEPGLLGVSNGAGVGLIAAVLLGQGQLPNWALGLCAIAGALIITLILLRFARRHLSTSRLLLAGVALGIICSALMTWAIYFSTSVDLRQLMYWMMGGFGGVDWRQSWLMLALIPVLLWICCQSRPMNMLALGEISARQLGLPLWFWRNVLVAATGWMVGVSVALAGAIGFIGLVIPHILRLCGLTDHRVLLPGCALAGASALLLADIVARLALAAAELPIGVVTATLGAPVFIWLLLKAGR
T1 sequence 2: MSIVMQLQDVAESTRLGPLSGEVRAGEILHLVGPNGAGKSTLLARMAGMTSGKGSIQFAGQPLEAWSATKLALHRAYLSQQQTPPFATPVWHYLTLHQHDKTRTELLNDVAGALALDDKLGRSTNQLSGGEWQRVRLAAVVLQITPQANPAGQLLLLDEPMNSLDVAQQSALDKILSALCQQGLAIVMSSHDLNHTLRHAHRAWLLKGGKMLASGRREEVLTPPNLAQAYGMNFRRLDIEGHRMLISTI
The experiment in a line: co-sedimentation.

Test [3] has as its target T1, BtuCD, the E. coli vitamin B12 ABC …. The experiment in a line: cell-based or functional assay.

Some results are limits rather than exact numbers.

MetIN, the E. coli D/L-methionine ABC importer (His-tagged) (Escherichia coli), sequence (P30750 whole entry, chain 1 of 2): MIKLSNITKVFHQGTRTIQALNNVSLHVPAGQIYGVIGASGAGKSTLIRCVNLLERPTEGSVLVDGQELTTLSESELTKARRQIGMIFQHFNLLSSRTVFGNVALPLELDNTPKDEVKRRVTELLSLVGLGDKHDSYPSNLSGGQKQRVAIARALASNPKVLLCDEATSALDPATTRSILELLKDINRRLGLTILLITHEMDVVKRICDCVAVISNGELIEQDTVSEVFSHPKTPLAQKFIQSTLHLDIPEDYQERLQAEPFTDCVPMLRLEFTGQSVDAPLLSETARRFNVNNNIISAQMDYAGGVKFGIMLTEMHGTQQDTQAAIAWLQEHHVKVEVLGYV
MetIN, the E. coli D/L-methionine ABC importer (His-tagged) (Escherichia coli), sequence (P31547 whole entry, chain 2 of 2, further chain): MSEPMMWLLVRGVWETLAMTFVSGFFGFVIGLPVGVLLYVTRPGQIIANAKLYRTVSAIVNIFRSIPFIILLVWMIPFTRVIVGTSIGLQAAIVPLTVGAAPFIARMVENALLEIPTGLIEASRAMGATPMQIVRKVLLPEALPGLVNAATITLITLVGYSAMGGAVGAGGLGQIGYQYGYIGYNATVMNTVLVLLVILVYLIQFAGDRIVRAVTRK

“MetQ, the binding protein of the E. coli D/L-methionine importer (from UniProt P28635 23-271) (natural protein)”: the dissociation constant Kd in test [1] worked out at 74 µM.

B1: BtuF, the vitamin B12 binding protein of E. coli, with a C-terminal FLAG tag (natural protein)
chain: APRVITLSPANTELAFAAGITPVGVSSYSDYPPQAQKIEQVSTWQGMNLERIVALKPDLVIAWRGGNAERQVDQLASLGIKVMWVDATSIEQIANALRQLAPWSPQPDKAEQAAQSLLDQYAQLKAQYADKPKKRVFLQFGINPPFTSGKESIQNQVLEVCGGENIFKDSRVPWPQVSREQVLARSPQAIVITGGPDQIPKIKQYWGEQLKIPVIPLTSDWFERASPRIILAAQQLCNALSQVD
Take B1: the equilibrium dissociation constant (Kd) in test [2] is < 0.02 µM. The “stimulation of ATP hydrolysis rate of BtuCD” value in test [3] is < 2 fold.

As a reminder, the Kd is the equilibrium constant for the complex coming apart. A lower Kd goes with higher affinity.

Source of the values: publication PMC2924745 (Nature structural & molecular biology, 2010).
